Assay results: publication PMC5931557

B1: mTRAIL-R: N99/N122/N150Q (protein)
parent chain: MEPPGPSTPTASAAARADHYTPGLRPLPKRRLLYSFALLLAVLQAVFVPVTANPAHNRPAGLQRPEESPSRGPCLAGQYLSEGNCKPCREGIDYTSHSNHSLDSCILCTVCKEDKVVETRCNITTNTVCRCKPGTFEDKDSPEICQSCSNCTDGEEELTSCTPRENRKCVSKTAWASWHKLGLWIGLLVPVVLLIGALLVWKTGAWRQWLLCIKRGCERDPESANSVHSSLLDRQTSSTTNDSNHNTEPGKTQKTGKKLLVPVNGNDSADDLKFIFEYCSDIVPFDSWNRLMRQLGLTDNQIQMVKAETLVTREALYQMLLKWRHQTGRSASINHLLDALEAVEERDAMEKIEDYAVKSGRFTYQNAAAQPETGPGGSQCV
B2: mTRAIL-R: tunicamycin (protein)
parent chain: MEPPGPSTPTASAAARADHYTPGLRPLPKRRLLYSFALLLAVLQAVFVPVTANPAHNRPAGLQRPEESPSRGPCLAGQYLSEGNCKPCREGIDYTSHSNHSLDSCILCTVCKEDKVVETRCNITTNTVCRCKPGTFEDKDSPEICQSCSNCTDGEEELTSCTPRENRKCVSKTAWASWHKLGLWIGLLVPVVLLIGALLVWKTGAWRQWLLCIKRGCERDPESANSVHSSLLDRQTSSTTNDSNHNTEPGKTQKTGKKLLVPVNGNDSADDLKFIFEYCSDIVPFDSWNRLMRQLGLTDNQIQMVKAETLVTREALYQMLLKWRHQTGRSASINHLLDALEAVEERDAMEKIEDYAVKSGRFTYQNAAAQPETGPGGSQCV

Experiments:
[1] = non-reducing SDS-PAGE immunoblot, transient overexpression; conditions: glycan lost; control: WT mTRAIL-R
[2] = cell surface staining, flow cytometry; reducing immunoblot; conditions: glycan lost; control: WT mTRAIL-R
[3] = cell surface flow cytometry, 7 h TU; conditions: glycan lost; control: untreated MEFs
[4] = streptavidin pulldown, non-reducing immunoblot; conditions: glycan lost; control: untreated MEFs

Row | Protein | oligomerisation [1] | expression_or_secretion [2] | localisation_or_trafficking [3] | oligomerisation [4]
1 | B1 | changes | no change, the mean intensity of the signal was even weaker for the N99/N122/N150Q mTRAIL-R-expressing cells | – | –
2 | B2 | – | – | no change | changes
